# Source: patent US20090170718
# Biological target: Botulinum neurotoxin type A light chain (BoNT/A-rLc) (UniProt P0DPI1)
sequence,measurement,value
AGCAGCACAGAGGTCAGATGNNNNNNNNNNNNNNNNNNNNNNNNNNNNNNNNNNNNNNNNNNNNNNNNNNNNNNNNNNNNCCTATGCGTGCTACCGTGAA [round 1 enriched aptamer pool (M-SELEX)],Kd,33 nM
